Kd data for 1 molecule are collected here from article PMC3399765 (2011).

A word on the Kd: it is the free concentration of one partner at which half of the binding sites on the other are occupied at equilibrium, for simple one-to-one binding. High values mean weaker binding, low ones tighter binding.

The experiment concerns the target SMB20 peptide (Homo sapiens, UniProt P14678). The experiment can be described thus: ITC.

B1: FBP21 WW domains (protein)
chain: DPSKGRWVEGITSEGYHYYYDLISGASQWEKPEGFQGDLKKTAVKTVWVEGLSEDGFTYYYNTETGESRWEKPDD
For the molecule B1, the dissociation constant (Kd) was 16.4 µM.
